The values below come from publication doi:10.1101/683052.

The target in the experiment is dynein/ dynactin/ BicD2-S complex (human | human (endogenous in HEK293-T)) (UniProt Q14204). Briefly: single-molecule TIRF colocalisation on microtubules.
Sequence of dynein/ dynactin/ BicD2-S complex (human | human (endogenous in HEK293-T)) (Q14204 whole entry, looked up, one chain of several): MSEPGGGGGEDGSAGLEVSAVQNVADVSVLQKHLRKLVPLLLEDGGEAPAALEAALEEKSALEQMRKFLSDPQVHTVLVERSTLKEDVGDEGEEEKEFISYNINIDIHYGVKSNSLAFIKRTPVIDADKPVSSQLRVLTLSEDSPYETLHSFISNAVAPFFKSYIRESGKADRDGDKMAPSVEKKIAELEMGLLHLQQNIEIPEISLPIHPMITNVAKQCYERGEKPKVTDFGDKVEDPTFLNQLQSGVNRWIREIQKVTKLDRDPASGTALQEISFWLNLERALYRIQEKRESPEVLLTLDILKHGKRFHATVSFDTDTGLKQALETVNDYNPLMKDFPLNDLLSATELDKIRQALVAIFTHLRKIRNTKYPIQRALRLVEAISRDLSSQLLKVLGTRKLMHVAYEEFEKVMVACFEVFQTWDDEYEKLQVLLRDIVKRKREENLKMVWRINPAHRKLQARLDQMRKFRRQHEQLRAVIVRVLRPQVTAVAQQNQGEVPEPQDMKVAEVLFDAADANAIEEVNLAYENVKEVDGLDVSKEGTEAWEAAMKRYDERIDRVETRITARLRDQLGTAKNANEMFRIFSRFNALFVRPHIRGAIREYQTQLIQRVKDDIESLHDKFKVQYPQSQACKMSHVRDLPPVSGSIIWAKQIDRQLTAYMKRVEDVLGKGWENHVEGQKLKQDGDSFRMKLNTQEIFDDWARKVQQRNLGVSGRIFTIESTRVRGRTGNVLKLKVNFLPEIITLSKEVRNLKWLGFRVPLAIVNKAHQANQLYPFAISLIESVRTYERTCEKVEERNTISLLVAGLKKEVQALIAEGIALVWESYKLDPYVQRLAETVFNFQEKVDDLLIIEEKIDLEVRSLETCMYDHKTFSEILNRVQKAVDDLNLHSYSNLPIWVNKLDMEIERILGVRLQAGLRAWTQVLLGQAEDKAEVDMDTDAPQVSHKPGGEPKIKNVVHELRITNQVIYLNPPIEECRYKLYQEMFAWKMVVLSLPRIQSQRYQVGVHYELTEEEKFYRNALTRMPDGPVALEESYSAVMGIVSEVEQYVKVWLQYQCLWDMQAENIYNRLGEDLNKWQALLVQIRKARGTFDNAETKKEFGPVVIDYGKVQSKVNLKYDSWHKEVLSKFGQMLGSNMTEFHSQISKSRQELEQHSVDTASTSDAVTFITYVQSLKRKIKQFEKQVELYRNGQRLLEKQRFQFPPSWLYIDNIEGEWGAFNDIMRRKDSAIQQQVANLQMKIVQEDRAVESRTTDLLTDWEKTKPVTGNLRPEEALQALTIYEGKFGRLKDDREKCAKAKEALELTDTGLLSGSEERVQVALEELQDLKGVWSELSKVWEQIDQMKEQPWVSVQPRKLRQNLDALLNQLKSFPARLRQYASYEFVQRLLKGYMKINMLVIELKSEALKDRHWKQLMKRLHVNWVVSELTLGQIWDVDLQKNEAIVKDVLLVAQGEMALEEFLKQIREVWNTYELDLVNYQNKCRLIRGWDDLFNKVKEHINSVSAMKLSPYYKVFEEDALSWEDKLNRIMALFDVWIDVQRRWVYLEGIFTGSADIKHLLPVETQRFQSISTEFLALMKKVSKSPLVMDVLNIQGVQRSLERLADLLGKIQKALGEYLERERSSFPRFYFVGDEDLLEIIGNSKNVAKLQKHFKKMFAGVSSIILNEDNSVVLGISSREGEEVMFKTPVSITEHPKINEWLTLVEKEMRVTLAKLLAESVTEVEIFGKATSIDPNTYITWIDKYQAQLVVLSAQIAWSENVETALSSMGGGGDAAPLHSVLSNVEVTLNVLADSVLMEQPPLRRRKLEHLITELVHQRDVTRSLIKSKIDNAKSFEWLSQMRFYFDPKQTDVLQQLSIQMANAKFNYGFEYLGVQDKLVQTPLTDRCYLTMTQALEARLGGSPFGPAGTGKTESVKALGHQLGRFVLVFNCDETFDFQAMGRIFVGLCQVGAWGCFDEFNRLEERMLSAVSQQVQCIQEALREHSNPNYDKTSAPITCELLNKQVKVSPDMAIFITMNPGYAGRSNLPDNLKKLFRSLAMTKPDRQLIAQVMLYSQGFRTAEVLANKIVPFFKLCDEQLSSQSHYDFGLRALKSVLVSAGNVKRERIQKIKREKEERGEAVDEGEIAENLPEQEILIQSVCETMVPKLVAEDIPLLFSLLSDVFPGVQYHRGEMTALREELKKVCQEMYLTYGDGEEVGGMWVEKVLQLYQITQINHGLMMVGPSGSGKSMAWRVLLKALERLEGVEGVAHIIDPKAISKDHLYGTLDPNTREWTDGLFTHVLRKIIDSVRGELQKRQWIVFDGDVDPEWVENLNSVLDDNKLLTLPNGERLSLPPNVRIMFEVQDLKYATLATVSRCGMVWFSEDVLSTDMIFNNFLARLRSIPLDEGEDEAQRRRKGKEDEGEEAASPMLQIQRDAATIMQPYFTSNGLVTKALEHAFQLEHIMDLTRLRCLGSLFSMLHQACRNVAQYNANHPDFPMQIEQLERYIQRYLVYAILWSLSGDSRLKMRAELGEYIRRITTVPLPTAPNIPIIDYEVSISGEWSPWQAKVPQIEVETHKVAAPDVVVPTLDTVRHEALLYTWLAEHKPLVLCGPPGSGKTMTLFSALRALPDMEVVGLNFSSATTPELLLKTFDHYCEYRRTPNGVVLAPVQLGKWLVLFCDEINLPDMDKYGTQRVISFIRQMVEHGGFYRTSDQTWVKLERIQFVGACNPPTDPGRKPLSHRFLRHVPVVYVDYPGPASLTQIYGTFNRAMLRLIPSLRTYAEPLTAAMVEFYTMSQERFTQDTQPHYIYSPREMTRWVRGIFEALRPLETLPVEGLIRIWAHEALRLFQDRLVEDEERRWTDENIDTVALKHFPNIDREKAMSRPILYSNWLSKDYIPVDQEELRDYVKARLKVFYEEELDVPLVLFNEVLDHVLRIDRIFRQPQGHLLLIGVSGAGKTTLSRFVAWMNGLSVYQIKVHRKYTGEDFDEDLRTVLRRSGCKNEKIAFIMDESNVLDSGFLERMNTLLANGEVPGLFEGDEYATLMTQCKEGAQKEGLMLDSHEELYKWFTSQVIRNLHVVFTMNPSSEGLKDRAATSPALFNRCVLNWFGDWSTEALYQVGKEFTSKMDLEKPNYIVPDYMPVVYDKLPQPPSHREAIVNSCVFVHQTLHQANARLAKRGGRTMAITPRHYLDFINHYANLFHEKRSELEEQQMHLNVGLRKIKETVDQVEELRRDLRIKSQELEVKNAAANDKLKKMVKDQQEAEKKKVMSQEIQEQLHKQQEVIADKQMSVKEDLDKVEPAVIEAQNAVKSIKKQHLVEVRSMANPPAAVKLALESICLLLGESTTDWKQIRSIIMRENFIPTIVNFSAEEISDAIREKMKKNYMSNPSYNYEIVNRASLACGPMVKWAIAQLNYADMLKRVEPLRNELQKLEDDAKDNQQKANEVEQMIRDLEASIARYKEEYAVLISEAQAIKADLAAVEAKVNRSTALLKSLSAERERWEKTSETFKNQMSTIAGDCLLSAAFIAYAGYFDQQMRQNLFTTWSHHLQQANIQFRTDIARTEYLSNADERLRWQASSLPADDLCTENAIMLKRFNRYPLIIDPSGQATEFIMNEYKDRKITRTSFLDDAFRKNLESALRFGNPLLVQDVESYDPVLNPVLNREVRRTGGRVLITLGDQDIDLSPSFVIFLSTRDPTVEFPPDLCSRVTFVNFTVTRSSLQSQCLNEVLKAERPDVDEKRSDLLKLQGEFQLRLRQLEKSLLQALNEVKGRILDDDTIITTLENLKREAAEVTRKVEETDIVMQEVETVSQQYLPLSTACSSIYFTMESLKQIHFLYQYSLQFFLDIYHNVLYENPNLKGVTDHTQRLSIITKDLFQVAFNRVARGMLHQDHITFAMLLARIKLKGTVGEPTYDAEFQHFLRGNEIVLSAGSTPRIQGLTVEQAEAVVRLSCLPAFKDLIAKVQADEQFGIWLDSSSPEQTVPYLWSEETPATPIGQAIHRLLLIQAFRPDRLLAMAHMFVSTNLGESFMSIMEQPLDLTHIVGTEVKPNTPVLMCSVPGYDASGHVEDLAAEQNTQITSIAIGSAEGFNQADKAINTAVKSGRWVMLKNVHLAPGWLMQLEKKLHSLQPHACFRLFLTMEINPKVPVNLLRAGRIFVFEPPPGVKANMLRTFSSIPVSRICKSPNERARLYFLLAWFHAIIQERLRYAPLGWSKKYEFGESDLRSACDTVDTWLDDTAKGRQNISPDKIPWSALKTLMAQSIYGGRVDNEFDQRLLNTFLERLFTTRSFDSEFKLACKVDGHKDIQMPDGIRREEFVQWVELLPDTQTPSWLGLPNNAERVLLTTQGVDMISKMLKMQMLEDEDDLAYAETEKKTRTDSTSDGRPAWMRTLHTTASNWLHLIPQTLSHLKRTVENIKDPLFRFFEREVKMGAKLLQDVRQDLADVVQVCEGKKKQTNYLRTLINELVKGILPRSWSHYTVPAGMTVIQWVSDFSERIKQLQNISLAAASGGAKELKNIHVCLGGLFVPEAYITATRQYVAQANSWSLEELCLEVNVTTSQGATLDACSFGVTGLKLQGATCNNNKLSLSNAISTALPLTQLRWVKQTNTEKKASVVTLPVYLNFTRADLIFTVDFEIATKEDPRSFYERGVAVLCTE

Consider “HaloTag-Lis1 (human full-length Lis1, PAFAH1B1) (from UniProt P43034 1-410) (natural protein)”, for which the percent of dynein runs that comigrated with Lis1 was determined as 16.8%.
